Experimental data taken from US20090208938A1 (CENTRE NATIONAL DE LA RECHERCHE SCIENTIFIQUE, published 2009).

Molecular target: T1, MCM2-7 protein complex (Xenopus egg extracts) (Xenopus, UniProt P55861 1-886; P49739 1-807; P30664 1-863; P55862 1-735; Q5FWY4 1-821; Q91876 …)
T1 construct: Endogenous complex of the six proteins MCM2 to MCM7; also called MCM2-7 proteins; MCM2-7 complex
Test: co-immunoprecipitation with MCM3 antibody from S phase egg extracts, western blot with MCM8 antibody

B1: Xenopus MCM8 protein (enzyme)
chain: MSQGWRGGSGGWRGGGGGGGNPYAGAWRGRPWRGRGQGGTWSRNNGRDPVCFAPPKPQLTQTTLDKYIPYKGWKLYFSEAYSDNSPFLEKVRAFEKFFKKQIELYDKDEIERKGSILVDYKELLQDEDLSASIPLSSELKDMPEKVLECMGLAIHQVLTKDLETHAADLQQQEGLRTEEAPIVNVPFIHARVFNYDTLTSLKNLRASLYGKYVALRGTVVRVGNIKPLCTKMAFSCNMCGDIQCFPLPDGKYTVPTKCPVPECRGRSFTANRSSPLTVTVDWQTIKVQELMSDDQREAGRIPRTVECELIQDLVDSCVPGDMITVTGIVKVSNTRDGGFKNKNNKCMFLLYIEANSVSNSKGQKGKSTEDSGNHGASMDFSLKDLYAIQEIQSQENLFQLIVNSLCPTIYGHELVKAGLSLALFGGCQKYADDKNRIPIRGDPHILVVGDPGLGKSQMLQAVCNVAPRGVYVCGNTTTTSGLTVTLSRDTTTGDFGLEAGALVLGDQGICGIDEFDKMGNQHQALLEAMEQQSISLAKAGIVCSLPARTSIIAAANPVGGHYNKGKTVSENLKMGSALLSRFDLVFILVDTPNEDHDHLLSEHVMAMRSGAKEIQSVDITRINTQNSNTSILEVPSERPLGERLKLRTGEHFDALPHQLLRKFVGYARQYVHPSLSPDAAQILQDFYLELRKQNQGIDSTPITTRQLESLIRLTEARARLELREKATKEDAEEVVQIMKYSLLGTFSDEFGKLDFQRSQHGSGMSNRSKAKKFVSALNRVAEQTYNNLFEFQQLRQIARELQIQVIDFEAFIGSLNDQGYLLKKGPRVFQLQTM
notes: Full-length protein: translated in vitro in rabbit reticulocytes, or the endogenous protein of Xenopus egg extracts; also called 90 kDa polypeptide
  binding result: no binding
